Targets include Activated protein C (UniProt P04070); Plasma kallikrein (UniProt P03952); Human αFXIIa (Human) (UniProt P00748); Thrombin (UniProt P00734); Plasmin (UniProt P00747).
Experiment in all cases: cell-based or functional assay
The next test addresses T1, Human βFXIIa (Human) (UniProt P00748).
T1 sequence (looked up): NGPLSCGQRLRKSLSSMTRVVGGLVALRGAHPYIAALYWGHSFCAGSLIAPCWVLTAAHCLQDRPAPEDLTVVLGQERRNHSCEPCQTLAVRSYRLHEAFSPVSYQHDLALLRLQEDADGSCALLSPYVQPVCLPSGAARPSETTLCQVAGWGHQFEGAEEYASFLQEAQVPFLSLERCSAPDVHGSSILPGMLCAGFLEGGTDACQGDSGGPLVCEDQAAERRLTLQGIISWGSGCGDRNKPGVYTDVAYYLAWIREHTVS

Chain of Plasma kallikrein (P03952 20-638 limits assumed): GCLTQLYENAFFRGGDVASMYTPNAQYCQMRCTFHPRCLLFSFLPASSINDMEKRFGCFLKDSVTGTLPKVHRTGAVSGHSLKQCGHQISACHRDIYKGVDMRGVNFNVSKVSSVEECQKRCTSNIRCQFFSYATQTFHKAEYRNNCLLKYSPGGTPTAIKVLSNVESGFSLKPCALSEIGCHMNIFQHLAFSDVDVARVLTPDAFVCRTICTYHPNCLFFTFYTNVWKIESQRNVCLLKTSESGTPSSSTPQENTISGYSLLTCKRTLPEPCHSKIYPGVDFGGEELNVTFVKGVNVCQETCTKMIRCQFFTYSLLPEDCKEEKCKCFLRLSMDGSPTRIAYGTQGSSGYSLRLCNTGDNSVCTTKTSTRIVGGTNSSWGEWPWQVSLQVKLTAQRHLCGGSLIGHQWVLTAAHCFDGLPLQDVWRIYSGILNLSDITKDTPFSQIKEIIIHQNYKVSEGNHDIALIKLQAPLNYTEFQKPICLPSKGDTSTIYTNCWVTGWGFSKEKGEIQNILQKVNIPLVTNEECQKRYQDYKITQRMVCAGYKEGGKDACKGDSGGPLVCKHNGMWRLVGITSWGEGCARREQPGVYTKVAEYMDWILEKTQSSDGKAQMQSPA
Chain of α1-Antitrypsin WT (P01009 25-418): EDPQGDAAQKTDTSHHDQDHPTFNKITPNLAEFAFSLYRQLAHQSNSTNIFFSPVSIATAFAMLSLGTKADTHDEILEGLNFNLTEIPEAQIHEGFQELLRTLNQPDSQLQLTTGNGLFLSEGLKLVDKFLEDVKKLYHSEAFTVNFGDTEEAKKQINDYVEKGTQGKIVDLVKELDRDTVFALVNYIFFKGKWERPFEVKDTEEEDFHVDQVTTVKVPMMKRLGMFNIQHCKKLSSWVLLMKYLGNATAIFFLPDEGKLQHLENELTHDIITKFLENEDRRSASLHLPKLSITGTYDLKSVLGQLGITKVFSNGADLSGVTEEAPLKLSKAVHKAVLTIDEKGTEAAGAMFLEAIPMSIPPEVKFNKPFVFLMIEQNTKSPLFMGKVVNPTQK
Chain of Activated protein C (P04070 43-461): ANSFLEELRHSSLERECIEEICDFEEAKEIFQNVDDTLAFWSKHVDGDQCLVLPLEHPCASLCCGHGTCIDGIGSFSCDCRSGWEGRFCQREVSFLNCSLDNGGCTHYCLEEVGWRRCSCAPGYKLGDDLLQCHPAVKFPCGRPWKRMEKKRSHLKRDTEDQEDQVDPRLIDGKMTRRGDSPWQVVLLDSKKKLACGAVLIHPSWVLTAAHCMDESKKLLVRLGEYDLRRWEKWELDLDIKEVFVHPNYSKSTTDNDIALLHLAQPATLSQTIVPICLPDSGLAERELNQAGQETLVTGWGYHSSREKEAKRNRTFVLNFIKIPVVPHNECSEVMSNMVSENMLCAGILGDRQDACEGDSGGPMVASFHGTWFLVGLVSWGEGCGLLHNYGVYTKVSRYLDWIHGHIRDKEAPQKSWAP
Chain of Plasmin (P00747 97-810 limits assumed): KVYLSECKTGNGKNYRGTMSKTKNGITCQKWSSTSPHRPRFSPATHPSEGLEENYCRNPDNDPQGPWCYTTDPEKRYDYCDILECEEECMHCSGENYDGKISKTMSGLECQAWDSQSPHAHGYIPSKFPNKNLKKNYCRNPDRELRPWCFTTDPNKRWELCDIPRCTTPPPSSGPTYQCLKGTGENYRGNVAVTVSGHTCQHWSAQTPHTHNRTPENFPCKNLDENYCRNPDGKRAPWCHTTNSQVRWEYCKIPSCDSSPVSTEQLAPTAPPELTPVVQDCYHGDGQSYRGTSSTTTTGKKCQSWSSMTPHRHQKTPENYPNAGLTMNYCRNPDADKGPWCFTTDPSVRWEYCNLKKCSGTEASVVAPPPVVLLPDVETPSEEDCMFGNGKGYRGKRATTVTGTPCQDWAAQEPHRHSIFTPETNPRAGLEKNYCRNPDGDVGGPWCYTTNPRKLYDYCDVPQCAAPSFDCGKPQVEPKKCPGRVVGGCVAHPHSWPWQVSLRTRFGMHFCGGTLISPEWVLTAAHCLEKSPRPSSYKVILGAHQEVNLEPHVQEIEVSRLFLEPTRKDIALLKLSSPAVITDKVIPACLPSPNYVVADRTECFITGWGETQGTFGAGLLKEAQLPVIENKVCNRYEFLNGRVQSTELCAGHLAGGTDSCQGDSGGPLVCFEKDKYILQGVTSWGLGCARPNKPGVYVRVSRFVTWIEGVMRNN

Take “α1-Antitrypsin WT (from UniProt P01009 25-418)”: the percentage inhibition, average (S2366 conversion) with Activated protein C came to 0%. For the same substance, the percentage inhibition, average (L2120 conversion) with Plasma kallikrein, with Human βFXIIa (Human) and in the test with Human αFXIIa (Human) was 0% each time. The substance also yielded a percentage inhibition, average (I1140 conversion) in the test with Thrombin of 0%. In the test with Plasmin, the percentage inhibition, average (I1390 conversion) stood at 0%.

In the test with Activated protein C, “α1-Antitrypsin variant 357AR358 (from UniProt P01009 25-418)” showed a percentage inhibition, average (S2366 conversion) of 66.5%. Also, the percentage inhibition, average (L2120 conversion) turned out to be 98% with Plasma kallikrein, 49% in the test with Human βFXIIa (Human) and 62.5% with Human αFXIIa (Human). The percentage inhibition, average (I1140 conversion) in the test with Thrombin came out at 97.5%. This substance also showed a percentage inhibition, average (I1390 conversion) with Plasmin of 99%.

For the substance “α1-Antitrypsin variant M358R (from UniProt P01009 25-418)”, the percentage inhibition, average (S2366 conversion) with Activated protein C was 94%. For the same substance, the results for the percentage inhibition, average (L2120 conversion) with Plasma kallikrein, with Human βFXIIa (Human) and in the test with Human αFXIIa (Human) were 91.5%, 90% and 94%, respectively. Besides, the percentage inhibition, average (I1140 conversion) in the test with Thrombin was 100%. This substance had a percentage inhibition, average (I1390 conversion) in the test with Plasmin of 100%.

In the test with Activated protein C, “α1-Antitrypsin variant SATRox* (from UniProt P01009 25-418)” had a percentage inhibition, average (S2366 conversion) of 10%. Moreover, the percentage inhibition, average (L2120 conversion) with Plasma kallikrein stood at 94%; in the test with Human βFXIIa (Human), 15%; with Human αFXIIa (Human) it was 17%. Besides, the percentage inhibition, average (I1140 conversion) with Thrombin was 3%. In the test with Plasmin, the percentage inhibition, average (I1390 conversion) turned out to be 0%.

In the test with Activated protein C, “α1-Antitrypsin variant SDYKox* (from UniProt P01009 25-418)” showed a percentage inhibition, average (S2366 conversion) of 1%. Besides, the percentage inhibition, average (L2120 conversion) is 50% with Plasma kallikrein and 7% in the test with Human βFXIIa (Human). This substance displayed a percentage inhibition, average (I1140 conversion) with Thrombin of 0%. Also, in the test with Plasmin, the percentage inhibition, average (I1390 conversion) came out at 7%.

Take “α1-Antitrypsin variant SEARox* (from UniProt P01009 25-418)”: in the test with Activated protein C, the percentage inhibition, average (S2366 conversion) is 3%. For the same substance, the percentage inhibition, average (L2120 conversion) amounted to 92% with Plasma kallikrein and 6% in the test with Human βFXIIa (Human). The percentage inhibition, average (I1140 conversion) with Thrombin came to 0%. Besides, the percentage inhibition, average (I1390 conversion) in the test with Plasmin stood at 13%.

For the substance “α1-Antitrypsin variant SFNRox* (from UniProt P01009 25-418)”, in the test with Activated protein C, the percentage inhibition, average (S2366 conversion) was determined as 5%. The percentage inhibition, average (L2120 conversion) with Plasma kallikrein amounted to 94%; in the test with Human βFXIIa (Human), 3%; with Human αFXIIa (Human) it was 5%. In the test with Thrombin, this substance registered a percentage inhibition, average (I1140 conversion) of 7%. This substance also came in with a percentage inhibition, average (I1390 conversion) with Plasmin of 3%.

“α1-Antitrypsin variant SGNRox* (from UniProt P01009 25-418)”: the percentage inhibition, average (S2366 conversion) with Activated protein C is 1%. Moreover, the percentage inhibition, average (L2120 conversion) with Plasma kallikrein amounted to 71.6%; with Human βFXIIa (Human), 5.2%. Further, the percentage inhibition, average (I1140 conversion) in the test with Thrombin was found to be 0%. The substance further displayed a percentage inhibition, average (I1390 conversion) in the test with Plasmin of 1%.

For “α1-Antitrypsin variant SGQRox* (from UniProt P01009 25-418)”, the percentage inhibition, average (S2366 conversion) with Activated protein C was found to be 6.5%. Moreover, the figures for the percentage inhibition, average (L2120 conversion) in the test with Plasma kallikrein, with Human βFXIIa (Human) and with Human αFXIIa (Human) were 88%, 4% and 4.5%, respectively. Moreover, the percentage inhibition, average (I1140 conversion) in the test with Thrombin was found to be 14.5%. Moreover, the percentage inhibition, average (I1390 conversion) in the test with Plasmin worked out at 5%.

Regarding “α1-Antitrypsin variant SKGRox* (from UniProt P01009 25-418)”, in the test with Activated protein C, the percentage inhibition, average (S2366 conversion) was 0%. Moreover, the percentage inhibition, average (L2120 conversion) in the test with Plasma kallikrein amounted to 97%; with Human βFXIIa (Human), 22%. This substance came in with a percentage inhibition, average (I1140 conversion) in the test with Thrombin of 7%. Also, in the test with Plasmin, the percentage inhibition, average (I1390 conversion) is 37%.

Substance “α1-Antitrypsin variant SLGRox* (from UniProt P01009 25-418)” registered a percentage inhibition, average (S2366 conversion) with Activated protein C of 1%. In addition, the percentage inhibition, average (L2120 conversion) with Plasma kallikrein was determined as 95.5%; with Human βFXIIa (Human), 17.3%. In addition, in the test with Thrombin, the percentage inhibition, average (I1140 conversion) stood at 9.5%. Further, in the test with Plasmin, the percentage inhibition, average (I1390 conversion) is 5.3%.

Substance “α1-Antitrypsin variant SLLRox* (from UniProt P01009 25-418)” registered a percentage inhibition, average (S2366 conversion) with Activated protein C of 9.7%. Also, the percentage inhibition, average (L2120 conversion) with Plasma kallikrein amounted to 97.7%; in the test with Human βFXIIa (Human), 41%. The substance also had a percentage inhibition, average (I1140 conversion) in the test with Thrombin of 62.3%. Besides, the percentage inhibition, average (I1390 conversion) with Plasmin was 94.7%.

In the case of “α1-Antitrypsin variant SLLRox*-I (from UniProt P01009 25-418)”, the percentage inhibition, average (S2366 conversion) with Activated protein C was 2.3%. Further, the percentage inhibition, average (L2120 conversion) in the test with Plasma kallikrein was 91.3%; with Human βFXIIa (Human), 40.3%. Further, the percentage inhibition, average (I1140 conversion) with Thrombin was 3.7%. Moreover, in the test with Plasmin, the percentage inhibition, average (I1390 conversion) is 66.7%.

In the test with Activated protein C, “α1-Antitrypsin variant SLLRox*-V (from UniProt P01009 25-418)” gave a percentage inhibition, average (S2366 conversion) of 3%. Moreover, the percentage inhibition, average (L2120 conversion) in the test with Plasma kallikrein was found to be 97.5%; with Human βFXIIa (Human), 47%. The substance further had a percentage inhibition, average (I1140 conversion) with Thrombin of 4.5%. This substance also came in with a percentage inhibition, average (I1390 conversion) in the test with Plasmin of 68%.

As to “α1-Antitrypsin variant SMDRox* (from UniProt P01009 25-418)”, the percentage inhibition, average (S2366 conversion) in the test with Activated protein C was 0%. For the same substance, the percentage inhibition, average (L2120 conversion) with Plasma kallikrein came to 87%; in the test with Human βFXIIa (Human) it was 4%. Moreover, the percentage inhibition, average (I1140 conversion) with Thrombin is 0%. In the test with Plasmin, this substance registered a percentage inhibition, average (I1390 conversion) of 20%.

In the test with Activated protein C, “α1-Antitrypsin variant SMHRox* (from UniProt P01009 25-418)” yielded a percentage inhibition, average (S2366 conversion) of 34%. In addition, the results for the percentage inhibition, average (L2120 conversion) with Plasma kallikrein and with Human βFXIIa (Human) were 96.3% and 18.3%, respectively. The substance further returned a percentage inhibition, average (I1140 conversion) with Thrombin of 10%. Moreover, in the test with Plasmin, the percentage inhibition, average (I1390 conversion) was 73%.

Turning to “α1-Antitrypsin variant SMTR (from UniProt P01009 25-418)”, in the test with Activated protein C, the percentage inhibition, average (S2366 conversion) was determined as 75%. In addition, the results for the percentage inhibition, average (L2120 conversion) with Plasma kallikrein, with Human βFXIIa (Human) and with Human αFXIIa (Human) were 98.5%, 85% and 88.5%, respectively. The same substance registered a percentage inhibition, average (I1140 conversion) in the test with Thrombin of 10.5%. The same substance registered a percentage inhibition, average (I1390 conversion) with Plasmin of 94%.

Consider “α1-Antitrypsin variant SMTRox* (from UniProt P01009 25-418)”, for which the percentage inhibition, average (S2366 conversion) in the test with Activated protein C was 76.5%. Besides, the percentage inhibition, average (L2120 conversion) with Plasma kallikrein came to 98.7%; in the test with Human βFXIIa (Human), 89.2%; with Human αFXIIa (Human), 92.5%. This substance registered a percentage inhibition, average (I1140 conversion) with Thrombin of 10.3%. For the same substance, the percentage inhibition, average (I1390 conversion) with Plasmin is 94.5%.

Take “α1-Antitrypsin variant SMTRox*-GVGG (from UniProt P01009 25-418)”: the percentage inhibition, average (S2366 conversion) in the test with Activated protein C was found to be 3%. Moreover, the percentage inhibition, average (L2120 conversion) with Plasma kallikrein came out at 39%; in the test with Human βFXIIa (Human), 9%. Besides, in the test with Thrombin, the percentage inhibition, average (I1140 conversion) came to 3%. In the test with Plasmin, this substance showed a percentage inhibition, average (I1390 conversion) of 20%.

Consider “α1-Antitrypsin variant SMTRox*-VVGG (from UniProt P01009 25-418)”, for which, in the test with Activated protein C, the percentage inhibition, average (S2366 conversion) is 0%. In addition, the percentage inhibition, average (L2120 conversion) stood at 47% with Plasma kallikrein and 29% with Human βFXIIa (Human). The same substance displayed a percentage inhibition, average (I1140 conversion) in the test with Thrombin of 1%. This substance returned a percentage inhibition, average (I1390 conversion) in the test with Plasmin of 8%.

With “α1-Antitrypsin variant SNSRox* (from UniProt P01009 25-418)”, the percentage inhibition, average (S2366 conversion) with Activated protein C is 7%. For the same substance, the percentage inhibition, average (L2120 conversion) worked out at 97% in the test with Plasma kallikrein and 20% with Human βFXIIa (Human). Also, the percentage inhibition, average (I1140 conversion) with Thrombin was determined as 62%. The same substance gave a percentage inhibition, average (I1390 conversion) in the test with Plasmin of 0%.

The substance “α1-Antitrypsin variant SPRRox* (from UniProt P01009 25-418)” returned a percentage inhibition, average (S2366 conversion) in the test with Activated protein C of 1%. The percentage inhibition, average (L2120 conversion) with Plasma kallikrein was determined as 97%; in the test with Human βFXIIa (Human), 2%; with Human αFXIIa (Human) it was 1%. In the test with Thrombin, this substance returned a percentage inhibition, average (I1140 conversion) of 0%. The substance also had a percentage inhibition, average (I1390 conversion) with Plasmin of 19%.

Consider “α1-Antitrypsin variant SWKKox* (from UniProt P01009 25-418)”, for which the percentage inhibition, average (S2366 conversion) with Activated protein C came to 0%. Besides, the percentage inhibition, average (L2120 conversion) with Plasma kallikrein worked out at 94%; in the test with Human βFXIIa (Human) it was 5%. The percentage inhibition, average (I1140 conversion) with Thrombin amounted to 0%. Also, the percentage inhibition, average (I1390 conversion) in the test with Plasmin amounted to 47%.

“α1-Antitrypsin variant SYARox* (from UniProt P01009 25-418)” displayed a percentage inhibition, average (S2366 conversion) with Activated protein C of 7%. Further, the percentage inhibition, average (L2120 conversion) in the test with Plasma kallikrein amounted to 97%; with Human βFXIIa (Human), 20%. Moreover, the percentage inhibition, average (I1140 conversion) with Thrombin was 62%. Besides, the percentage inhibition, average (I1390 conversion) in the test with Plasmin is 0%.
